Experiments:
Human BCMA (human) = Human BCMA (human) (UniProt Q02223); assay: SPR, IgG on chip, huBCMA analyte
[1] = target: BCMA (analyte of Table 4A); assay: SPR (Bio-Rad ProteOn XPR36), IgG amine-coupled, BCMA as analyte, kinetic titration; BCMA species and temperature not stated in Table 4A
cynomolgus monkey BCMA = target: T1, cynomolgus monkey BCMA (cynomolgus monkey, UniProt A0A2K5UD97 1-53); assay: SPR, IgG on chip, cyBCMA analyte
T1 construct: Soluble analyte in SPR; construct not described; also called cyBCMA; Cyno BCMA
T1 sequence (A0A2K5UD97 entry or part of it): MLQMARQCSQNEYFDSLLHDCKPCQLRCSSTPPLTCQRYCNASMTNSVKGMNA

[2] = target: BCMA on MM1S cells (human) (UniProt Q02223); assay: cell-based or functional assay
Chain of BCMA on MM1S cells (human) (Q02223 whole entry): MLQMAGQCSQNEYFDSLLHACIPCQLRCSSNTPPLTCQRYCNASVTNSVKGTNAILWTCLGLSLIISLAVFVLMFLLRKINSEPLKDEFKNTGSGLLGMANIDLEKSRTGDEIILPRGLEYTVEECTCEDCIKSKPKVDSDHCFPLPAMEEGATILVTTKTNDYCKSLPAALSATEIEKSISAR

Chain of BCMA (analyte of Table 4A) (Q02223 whole entry): as above

| Binder | Kd (Human BCMA (human)) [nM] | koff (Human BCMA (human)) [s⁻¹] | kon (Human BCMA (human)) [M⁻¹ s⁻¹] | Kd [1] [nM] | koff [1] [s⁻¹] | kon [1] [M⁻¹ s⁻¹] | t1/2 [1] [h] | Kd (cynomolgus monkey BCMA) [nM] | koff (cynomolgus monkey BCMA) [s⁻¹] | kon (cynomolgus monkey BCMA) [M⁻¹ s⁻¹] | % CD107a+ (in CD8+) [2] [%] | MFI CD107a+ [2] |
| --- | --- | --- | --- | --- | --- | --- | --- | --- | --- | --- | --- | --- |
| COMBO_Rd4_0.6nM_C29 (antibody, V domains shown, IgG) VH: EVQLLESGGGLVQPGGSLRLSCAASGFTFSSYPMSWVRQAPGKGLEWVSAIGGSGGSLPYADSVKGRFTISRDNSKNTLYLQMNSLRAEDTAVYYCARYWPMDIWGQGTLVTVSS VL: EIVLTQSPGTLSLSPGERATLSCRASQSVSSSYLAWYQQKPGQAPRLLMYDASIRATGIPDRFSGSGSGTDFTLTISRLEPEDFAVYYCQQYQSWPLTFGQGTKVEIK | 0.019 | 0.000277 | 1.47e+07 | 0.021 | 0.00014 | 6.6e+06 | 1.38 | 0.084 | 0.000336 | 4e+06 | – | – |
| P6AP-V1 (protein) EVQLLESGGGLVQPGGSLRLSCAASGFTFGSYAMTWVRQAPGKGLEWVSAISGSGGNTFYADSVKGRFTISRDNSKNTLYLQMNSLRAEDTAVYYCARVSPIAAPMDYWGQGTLVTVSSGGGGSGGGGSGGGGSEIVLTQSPGTLSLSPGERATLSCRASQLGSFYLAWYQQKPGQAPRLLIYGASSRATGIPDRFSGSGSGTDFTLTISRLEPEDFAVYYCQHYNYPPSFTFGQGTKVEIKGLAVSTISSFFPPGYQIYIWAPLAGTCGVLLLSLVITLYCKRGRKKLLYIFKQPFMRPVQTTQEEDGCSCRFPEEEEGGCELRVKFSRSADAPAYQQGQNQLYNELNLGRREEYDVLDKRRGRDPEMGGKPRRKNPQEGLYNELQKDKMAEAYSEIGMKGERRRGKGHDGLYQGLSTATKDTYDALHMQALPPR | – | – | – | – | – | – | – | – | – | – | 46.4 | 1850 |

— patent publication US20190241669A1 (published 2019)
